Data on 4 molecules can be found in paper PMC9482650, “Quantitative fragmentomics allow affinity mapping of interactomes” (Nature Communications, 2022).

Targets include PICK1, Q9NRD5; HTRA1, Q92743; PTPN3, P26045; NOS1, P29475; DLG1_2, Q12959; MAST1, Q9Y2H9; MAGI2_5, Q86UL8; DLG2_2, Q15700; IL16_3, Q14005; TJP1_2, Q07157; DLG2_3, Q15700.
Holding throughout (assay): holdup assay
Common to all, as to set-up: key: below the threshold = too weak to quantify, mostly under pKd 3.1 to 4
Common to all, as to details: plain residues with an end cap or a label only (N-terminal biotin on a linker: ado-ado)

In another assay the target is T1, NHERF3_4, Q5T2W1.
T1 sequence (Q5T2W1 373-468, limits assumed, looked up): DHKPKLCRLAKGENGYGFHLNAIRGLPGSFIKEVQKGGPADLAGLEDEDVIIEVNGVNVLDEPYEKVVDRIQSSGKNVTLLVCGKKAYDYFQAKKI

In a further assay the target is T2, MPDZ_12, O75970.
T2 sequence (O75970 1857-1958, limits assumed, looked up): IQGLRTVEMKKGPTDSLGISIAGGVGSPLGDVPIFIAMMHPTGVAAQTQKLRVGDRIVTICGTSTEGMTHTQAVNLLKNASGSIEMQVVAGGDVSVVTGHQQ

A further assay deals with T3, LIN7A, O14910.
T3 sequence (O14910 103-200, limits assumed, looked up): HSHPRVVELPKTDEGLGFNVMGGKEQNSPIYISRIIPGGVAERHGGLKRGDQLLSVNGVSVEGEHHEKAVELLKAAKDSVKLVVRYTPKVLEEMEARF

The target in another assay is T4, ARHGAP21, Q5T5U3.
T4 sequence (Q5T5U3 45-169, limits assumed, looked up): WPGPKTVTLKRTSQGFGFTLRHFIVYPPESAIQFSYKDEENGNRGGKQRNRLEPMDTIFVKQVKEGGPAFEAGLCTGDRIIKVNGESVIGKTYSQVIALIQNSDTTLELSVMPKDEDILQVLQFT

Another assay deals with T5, APBA2_2, Q99767.
T5 sequence (Q99767 654-744, limits assumed, looked up): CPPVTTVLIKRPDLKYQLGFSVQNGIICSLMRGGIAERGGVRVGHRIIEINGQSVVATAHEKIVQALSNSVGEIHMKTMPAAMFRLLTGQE

Another assay addresses T6, DFNB31_2, Q9P202.
T6 sequence (Q9P202 274-371, limits assumed, looked up): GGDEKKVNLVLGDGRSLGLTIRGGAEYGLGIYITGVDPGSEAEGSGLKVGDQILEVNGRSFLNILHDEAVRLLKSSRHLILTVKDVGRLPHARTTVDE

For the next assay, the target named is T7, NHERF3_1, Q5T2W1.
T7 sequence (Q5T2W1 4-100, limits assumed, looked up): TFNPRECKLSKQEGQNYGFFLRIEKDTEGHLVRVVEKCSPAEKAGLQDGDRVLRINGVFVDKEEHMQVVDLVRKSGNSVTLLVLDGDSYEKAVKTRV

The target in another assay is T8, PDZRN3_1, Q9UPQ7.
T8 sequence (Q9UPQ7 244-349, limits assumed, looked up): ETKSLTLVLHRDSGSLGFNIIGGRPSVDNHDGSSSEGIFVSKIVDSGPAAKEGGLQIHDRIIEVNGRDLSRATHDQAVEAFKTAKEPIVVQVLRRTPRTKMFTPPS

The target of the next assay is T9, MPDZ_5, O75970.
T9 sequence (O75970 695-796, limits assumed, looked up): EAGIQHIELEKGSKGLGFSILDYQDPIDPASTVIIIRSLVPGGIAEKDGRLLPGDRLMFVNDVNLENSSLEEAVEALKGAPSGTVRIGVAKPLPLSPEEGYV

The next assay concerns the target T10, LRRC7, Q96NW7.
T10 sequence (Q96NW7 1440-1537, limits assumed, looked up): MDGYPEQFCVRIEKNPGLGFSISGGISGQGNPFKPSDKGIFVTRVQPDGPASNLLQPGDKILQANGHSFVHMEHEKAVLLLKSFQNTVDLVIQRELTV

A further assay addresses T11, DLG3_1, Q92796.
T11 sequence (Q92796 125-227, limits assumed, looked up): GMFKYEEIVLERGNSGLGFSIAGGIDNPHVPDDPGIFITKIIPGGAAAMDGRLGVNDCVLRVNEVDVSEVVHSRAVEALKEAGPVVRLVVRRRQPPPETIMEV

A further assay concerns the target T12, TX1BP3, O14907.
T12 sequence (O14907 10-122, limits assumed, looked up): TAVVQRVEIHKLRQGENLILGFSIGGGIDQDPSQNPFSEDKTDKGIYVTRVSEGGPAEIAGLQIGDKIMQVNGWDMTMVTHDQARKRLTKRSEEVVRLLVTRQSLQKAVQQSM

In a further assay the target is T13, MPDZ_10, O75970.
T13 sequence (O75970 1624-1722, limits assumed, looked up): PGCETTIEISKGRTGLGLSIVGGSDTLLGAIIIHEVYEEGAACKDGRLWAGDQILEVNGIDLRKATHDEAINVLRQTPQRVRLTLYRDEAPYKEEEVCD

MAST1, Q9Y2H9, sequence (Q9Y2H9 962-1065): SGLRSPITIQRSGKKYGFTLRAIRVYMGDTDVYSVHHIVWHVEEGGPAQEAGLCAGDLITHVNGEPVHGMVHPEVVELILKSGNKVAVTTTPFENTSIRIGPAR
NOS1, P29475, sequence (P29475 9-101): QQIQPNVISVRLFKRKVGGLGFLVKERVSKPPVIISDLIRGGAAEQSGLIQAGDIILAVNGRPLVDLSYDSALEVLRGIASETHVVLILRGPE
TJP1_2, Q07157, sequence (Q07157 181-274): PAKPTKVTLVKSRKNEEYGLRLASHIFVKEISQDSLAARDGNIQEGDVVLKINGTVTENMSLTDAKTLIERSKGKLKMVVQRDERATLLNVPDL
PICK1, Q9NRD5, sequence (Q9NRD5 17-115): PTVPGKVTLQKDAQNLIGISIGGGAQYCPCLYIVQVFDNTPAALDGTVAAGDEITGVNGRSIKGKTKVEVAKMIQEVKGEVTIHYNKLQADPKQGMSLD
MAGI2_5, Q86UL8, sequence (Q86UL8 915-1017): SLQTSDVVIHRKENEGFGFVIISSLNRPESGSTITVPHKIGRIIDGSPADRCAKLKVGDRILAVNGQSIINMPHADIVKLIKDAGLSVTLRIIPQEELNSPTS
HTRA1, Q92743, sequence (Q92743 360-477): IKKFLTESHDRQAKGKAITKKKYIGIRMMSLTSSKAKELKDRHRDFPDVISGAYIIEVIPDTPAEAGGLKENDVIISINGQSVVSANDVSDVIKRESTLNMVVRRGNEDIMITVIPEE
IL16_3, Q14005, sequence (Q14005 1107-1207): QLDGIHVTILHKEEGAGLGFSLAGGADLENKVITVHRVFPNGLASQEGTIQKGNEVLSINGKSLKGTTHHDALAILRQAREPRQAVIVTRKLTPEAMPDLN
DLG1_2, Q12959, sequence (Q12959 314-412): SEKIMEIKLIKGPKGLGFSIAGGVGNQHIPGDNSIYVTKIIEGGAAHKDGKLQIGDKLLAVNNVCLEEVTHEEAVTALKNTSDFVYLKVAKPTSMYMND
PTPN3, P26045, sequence (P26045 505-587): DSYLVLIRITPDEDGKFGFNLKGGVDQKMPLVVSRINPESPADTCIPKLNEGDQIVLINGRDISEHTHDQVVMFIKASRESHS

HSGYRLNDYV [CLDN14, O95500]: the pKd – broadly, the negative decadic logarithm of the Kd, by convention in mol/L – was 4.13 in the assay with PICK1, Q9NRD5; “below the threshold” with NHERF3_4, Q5T2W1; 4.34 in the assay with HTRA1, Q92743; “below the threshold” with MPDZ_12, O75970; “below the threshold” in the assay with LIN7A, O14910; 3.95 in the assay with ARHGAP21, Q5T5U3. The pKd entry with APBA2_2, Q99767 was “below the threshold”; with PTPN3, P26045 it was “below the threshold”; with NOS1, P29475, 4.21; in the assay with DFNB31_2, Q9P202 it was “below the threshold”; with NHERF3_1, Q5T2W1 it was 4.59; with DLG1_2, Q12959, 3.77. In addition, the pKd result with PDZRN3_1, Q9UPQ7 is “below the threshold”; in the assay with MAST1, Q9Y2H9, “below the threshold”; in the assay with MPDZ_5, O75970, “below the threshold”; in the assay with LRRC7, Q96NW7 it was “below the threshold”; with MAGI2_5, Q86UL8, “below the threshold”; with DLG2_2, Q15700, “below the threshold”. In addition, the pKd entry was “below the threshold” with DLG3_1, Q92796; 4.24 with TX1BP3, O14907; “below the threshold” with IL16_3, Q14005; “below the threshold” with MPDZ_10, O75970; “below the threshold” with TJP1_2, Q07157; “below the threshold” with DLG2_3, Q15700.
Turning to DDENIRTSDV [PLEKHA2, Q9HB19], the pKd entry in the assay with PICK1, Q9NRD5 is “below the threshold”; with NHERF3_4, Q5T2W1 it was “below the threshold”; with HTRA1, Q92743 it was “below the threshold”; in the assay with MPDZ_12, O75970, “below the threshold”; in the assay with LIN7A, O14910, “below the threshold”; with ARHGAP21, Q5T5U3, 4.37. Further, the pKd entry with APBA2_2, Q99767 is “below the threshold”; in the assay with PTPN3, P26045, 4.6; with NOS1, P29475 it was “below the threshold”; with DFNB31_2, Q9P202 it was “below the threshold”; with NHERF3_1, Q5T2W1, “below the threshold”; in the assay with DLG1_2, Q12959, 4.46. Also, the pKd result with PDZRN3_1, Q9UPQ7 is “below the threshold”; with MAST1, Q9Y2H9, 4.31; in the assay with MPDZ_5, O75970 it was “below the threshold”; with LRRC7, Q96NW7 it was 3.72; with MAGI2_5, Q86UL8 it was “below the threshold”; in the assay with DLG2_2, Q15700, 4.04. The pKd entry was “below the threshold” with DLG3_1, Q92796; 4.75 with TX1BP3, O14907; “below the threshold” with IL16_3, Q14005; 3.85 with MPDZ_10, O75970; “below the threshold” with TJP1_2, Q07157; “below the threshold” with DLG2_3, Q15700.
Take KKMPSIESDV [GRIN2A, Q12879]: the pKd entry is listed as “below the threshold” with PICK1, Q9NRD5; “below the threshold” with NHERF3_4, Q5T2W1; “below the threshold” in the assay with HTRA1, Q92743; “below the threshold” with MPDZ_12, O75970; “below the threshold” in the assay with LIN7A, O14910; “below the threshold” with ARHGAP21, Q5T5U3. The pKd result was “below the threshold” with APBA2_2, Q99767; 4.44 with PTPN3, P26045; “below the threshold” with NOS1, P29475; “below the threshold” in the assay with DFNB31_2, Q9P202; “below the threshold” with NHERF3_1, Q5T2W1; 5.44 with DLG1_2, Q12959. Also, the pKd entry with PDZRN3_1, Q9UPQ7 is “below the threshold”; with MAST1, Q9Y2H9 it was “below the threshold”; with MPDZ_5, O75970 it was “below the threshold”; with LRRC7, Q96NW7, 3.91; with MAGI2_5, Q86UL8 it was “below the threshold”; in the assay with DLG2_2, Q15700 it was 5.04. For the same molecule, the pKd with DLG3_1, Q92796 is 4.35; in the assay with TX1BP3, O14907, 5.13; with IL16_3, Q14005, “below the threshold”; in the assay with MPDZ_10, O75970, “below the threshold”; with TJP1_2, Q07157, “below the threshold”; in the assay with DLG2_3, Q15700, 3.74.
Take TACCHSETVV [TGFA, P01135]: the pKd result with PICK1, Q9NRD5 was “below the threshold”; with NHERF3_4, Q5T2W1, “below the threshold”; with HTRA1, Q92743 it was 4.62; with MPDZ_12, O75970 it was “below the threshold”; in the assay with LIN7A, O14910, 3.51; in the assay with ARHGAP21, Q5T5U3, 4.08. Further, the pKd entry with APBA2_2, Q99767 was “below the threshold”; with PTPN3, P26045, 4.41; in the assay with NOS1, P29475, “below the threshold”; with DFNB31_2, Q9P202, “below the threshold”; with NHERF3_1, Q5T2W1, 3.64; with DLG1_2, Q12959, 4.89. The pKd was 3.78 in the assay with PDZRN3_1, Q9UPQ7; 3.9 in the assay with MAST1, Q9Y2H9; “below the threshold” with MPDZ_5, O75970; “below the threshold” with LRRC7, Q96NW7; 4.36 in the assay with MAGI2_5, Q86UL8; 4.76 with DLG2_2, Q15700. Moreover, the pKd is 4.19 with DLG3_1, Q92796; 3.82 with TX1BP3, O14907; “below the threshold” with IL16_3, Q14005; “below the threshold” with MPDZ_10, O75970; “below the threshold” with TJP1_2, Q07157; 4.05 in the assay with DLG2_3, Q15700.
